The supplement of paper PMC6757056
± gives the standard deviation of the averaged measurements.

B1: library; a variant is named by its letters at N, in order (parent)
chain: GCUGUCACCGGUGCUUGGUACGUUAUAUUCAGCCGGUCUGAUGAGUCUNNNNNNAGACGAAACAGC

How the values were obtained:
(6R,S)-folinic acid [1] = variants of: B1; assay: normalized RNA/DNA level without ligand (relative to sTRSVctl = 100) (log10 (% of sTRSVctl)); HEK293T overexpressing SLC46A1; higher = less ribozyme self-cleavage, higher mRNA level; settings: without (6R,S)-folinic acid; ligand present: no
In short: (§1)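 HEK293T cells were transfected with library plasmids carrying ribozyme switches linked to an mCherry reporter, or an eGFP reporter in some ligand experiments, at 4 µg per well of a 6-well plate, with any ligand added 1 h beforehand. After 72 h, total RNA was extracted with EDTA, reverse-transcribed, amplified, barcoded and sequenced. RNA level was defined as RNA reads over DNA reads, normalized to a spiked-in non-cleaving sequence or to the top-ranked sequences. That value was multiplied by 100 and converted to log10, the top set was 25 sequences, and only sequences with ≥100 DNA reads were retained.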

(6R,S)-folinic acid [2] = variants of: B1; assay: normalized RNA/DNA level with ligand (relative to sTRSVctl = 100) (log10 (% of sTRSVctl)); HEK293T overexpressing SLC46A1; ligand concentration (+) RNA-Seq: 6 mM; higher = less ribozyme self-cleavage, higher mRNA level; settings: with (6R,S)-folinic acid; ligand present: yes
In short: as §1

Variant | normalized RNA/DNA level without ligand (log10) ((6R,S)-folinic acid [1]) | normalized RNA/DNA level with ligand (log10) ((6R,S)-folinic acid [2])
GCUGUCACCGGUGCUUGGUACGUUAUAUUCAGCCGGUCUGAUGAGUCUCGGUUUAGACGAAACAGC [CGGUUU] | 2.033 ± 0.017 | 2.056 ± 0.012
GCUGUCACCGGUGCUUGGUACGUUAUAUUCAGCCGGUCUGAUGAGUCUGGUUUAAGACGAAACAGC [GGUUUA] | 2.009 ± 0.018 | 1.98 ± 0.03
GCUGUCACCGGUGCUUGGUACGUUAUAUUCAGCCGGUCUGAUGAGUCUGCGUGAAGACGAAACAGC [GCGUGA] | 1.999 ± 0.015 | 2.03 ± 0.038
GCUGUCACCGGUGCUUGGUACGUUAUAUUCAGCCGGUCUGAUGAGUCUAAAACCAGACGAAACAGC [AAAACC] | 2.0338 ± 0.0018 | 2.02 ± 0.048
GCUGUCACCGGUGCUUGGUACGUUAUAUUCAGCCGGUCUGAUGAGUCUCAAUGUAGACGAAACAGC [CAAUGU] | 1.981 ± 0.0089 | 1.98 ± 0.044
GCUGUCACCGGUGCUUGGUACGUUAUAUUCAGCCGGUCUGAUGAGUCUUCUCAUAGACGAAACAGC [UCUCAU] | 2.032 ± 0.015 | 2.023 ± 0.011
GCUGUCACCGGUGCUUGGUACGUUAUAUUCAGCCGGUCUGAUGAGUCUCUAUUCAGACGAAACAGC [CUAUUC] | 2.06 ± 0.024 | 2.008 ± 0.0052
GCUGUCACCGGUGCUUGGUACGUUAUAUUCAGCCGGUCUGAUGAGUCUUCACUAAGACGAAACAGC [UCACUA] | 1.9969 ± 0.0017 | 2.019 ± 0.0085
GCUGUCACCGGUGCUUGGUACGUUAUAUUCAGCCGGUCUGAUGAGUCUCGCUGAAGACGAAACAGC [CGCUGA] | 2.075 ± 0.003 | 2.05 ± 0.03
GCUGUCACCGGUGCUUGGUACGUUAUAUUCAGCCGGUCUGAUGAGUCUUCGUUAAGACGAAACAGC [UCGUUA] | 2.009 ± 0.0058 | 2.04 ± 0.038
GCUGUCACCGGUGCUUGGUACGUUAUAUUCAGCCGGUCUGAUGAGUCUCAUACUAGACGAAACAGC [CAUACU] | 2.01 ± 0.018 | 2.03 ± 0.051
GCUGUCACCGGUGCUUGGUACGUUAUAUUCAGCCGGUCUGAUGAGUCUUUACAUAGACGAAACAGC [UUACAU] | 1.96 ± 0.025 | 1.98 ± 0.028
GCUGUCACCGGUGCUUGGUACGUUAUAUUCAGCCGGUCUGAUGAGUCUGCCAUAAGACGAAACAGC [GCCAUA] | 2.016 ± 0.0031 | 2.02 ± 0.052
GCUGUCACCGGUGCUUGGUACGUUAUAUUCAGCCGGUCUGAUGAGUCUCCGAUCAGACGAAACAGC [CCGAUC] | 2.055 ± 0.018 | 2.03 ± 0.03
GCUGUCACCGGUGCUUGGUACGUUAUAUUCAGCCGGUCUGAUGAGUCUUCCCAUAGACGAAACAGC [UCCCAU] | 2.003 ± 0.0031 | 1.9973 ± 0.0006
GCUGUCACCGGUGCUUGGUACGUUAUAUUCAGCCGGUCUGAUGAGUCUCAGAUGAGACGAAACAGC [CAGAUG] | 2.0121 ± 0.0011 | 2.026 ± 0.019
GCUGUCACCGGUGCUUGGUACGUUAUAUUCAGCCGGUCUGAUGAGUCUGCCCGUAGACGAAACAGC [GCCCGU] | 2.0126 ± 0.0014 | 2.007 ± 0.0028
GCUGUCACCGGUGCUUGGUACGUUAUAUUCAGCCGGUCUGAUGAGUCUAUGGAUAGACGAAACAGC [AUGGAU] | 1.889 ± 0.0038 | 2.01 ± 0.033
GCUGUCACCGGUGCUUGGUACGUUAUAUUCAGCCGGUCUGAUGAGUCUCUGAUCAGACGAAACAGC [CUGAUC] | 2.0695 ± 0.0006 | 2.038 ± 0.013
GCUGUCACCGGUGCUUGGUACGUUAUAUUCAGCCGGUCUGAUGAGUCUCCCGAUAGACGAAACAGC [CCCGAU] | 2.002 ± 0.016 | 2.017 ± 0.0026
GCUGUCACCGGUGCUUGGUACGUUAUAUUCAGCCGGUCUGAUGAGUCUUUGGGCAGACGAAACAGC [UUGGGC] | 2.036 ± 0.0078 | 2.037 ± 0.0067

Variant | normalized RNA/DNA level without ligand (log10) ((6R,S)-folinic acid [1]) | normalized RNA/DNA level with ligand (log10) ((6R,S)-folinic acid [2])
GCUGUCACCGGUGCUUGGUACGUUAUAUUCAGCCGGUCUGAUGAGUCUGACCUCAGACGAAACAGC [GACCUC] | 2.06 ± 0.0084 | 2.044 ± 0.0024
GCUGUCACCGGUGCUUGGUACGUUAUAUUCAGCCGGUCUGAUGAGUCUUGCCCCAGACGAAACAGC [UGCCCC] | 2.03 ± 0.04 | 2.01 ± 0.07
GCUGUCACCGGUGCUUGGUACGUUAUAUUCAGCCGGUCUGAUGAGUCUAGCAGCAGACGAAACAGC [AGCAGC] | 2.028 ± 0.0032 | 2.03 ± 0.054
GCUGUCACCGGUGCUUGGUACGUUAUAUUCAGCCGGUCUGAUGAGUCUGAUUUCAGACGAAACAGC [GAUUUC] | 2.055 ± 0.017 | 2 ± 0.03
GCUGUCACCGGUGCUUGGUACGUUAUAUUCAGCCGGUCUGAUGAGUCUCUGGGUAGACGAAACAGC [CUGGGU] | 2.025 ± 0.02 | 2.032 ± 0.017
GCUGUCACCGGUGCUUGGUACGUUAUAUUCAGCCGGUCUGAUGAGUCUAGUAGAAGACGAAACAGC [AGUAGA] | 1.943 ± 0.0031 | 2.018 ± 0.0096
GCUGUCACCGGUGCUUGGUACGUUAUAUUCAGCCGGUCUGAUGAGUCUGUUAUCAGACGAAACAGC [GUUAUC] | 2.027 ± 0.012 | 2.044 ± 0.0079
GCUGUCACCGGUGCUUGGUACGUUAUAUUCAGCCGGUCUGAUGAGUCUUGGAAUAGACGAAACAGC [UGGAAU] | 1.869 ± 0.0092 | 2 ± 0.024
GCUGUCACCGGUGCUUGGUACGUUAUAUUCAGCCGGUCUGAUGAGUCUAGUUCCAGACGAAACAGC [AGUUCC] | 2.06 ± 0.047 | 2.04 ± 0.059
GCUGUCACCGGUGCUUGGUACGUUAUAUUCAGCCGGUCUGAUGAGUCUCCCAAGAGACGAAACAGC [CCCAAG] | 1.935 ± 0.014 | 1.99 ± 0.031
GCUGUCACCGGUGCUUGGUACGUUAUAUUCAGCCGGUCUGAUGAGUCUUAAAUAAGACGAAACAGC [UAAAUA] | 1.952 ± 0.014 | 2 ± 0.034
GCUGUCACCGGUGCUUGGUACGUUAUAUUCAGCCGGUCUGAUGAGUCUCAAUUGAGACGAAACAGC [CAAUUG] | 2.014 ± 0.0049 | 2.06 ± 0.023
GCUGUCACCGGUGCUUGGUACGUUAUAUUCAGCCGGUCUGAUGAGUCUUCCCUUAGACGAAACAGC [UCCCUU] | 2.03 ± 0.026 | 2.006 ± 0.0086
GCUGUCACCGGUGCUUGGUACGUUAUAUUCAGCCGGUCUGAUGAGUCUCCCGUAAGACGAAACAGC [CCCGUA] | 2.062 ± 0.016 | 2.07 ± 0.055
GCUGUCACCGGUGCUUGGUACGUUAUAUUCAGCCGGUCUGAUGAGUCUCCGGUCAGACGAAACAGC [CCGGUC] | 2.0714 ± 0.0011 | 2.03 ± 0.069
GCUGUCACCGGUGCUUGGUACGUUAUAUUCAGCCGGUCUGAUGAGUCUUACUGAAGACGAAACAGC [UACUGA] | 1.9244 ± 0.0015 | 2.03 ± 0.034
GCUGUCACCGGUGCUUGGUACGUUAUAUUCAGCCGGUCUGAUGAGUCUCAGCUAAGACGAAACAGC [CAGCUA] | 2.02 ± 0.0022 | 2.04 ± 0.022
GCUGUCACCGGUGCUUGGUACGUUAUAUUCAGCCGGUCUGAUGAGUCUCAGGCGAGACGAAACAGC [CAGGCG] | 2.02 ± 0.023 | 2.03 ± 0.029
GCUGUCACCGGUGCUUGGUACGUUAUAUUCAGCCGGUCUGAUGAGUCUCUGGUUAGACGAAACAGC [CUGGUU] | 1.97 ± 0.04 | 1.99 ± 0.046
GCUGUCACCGGUGCUUGGUACGUUAUAUUCAGCCGGUCUGAUGAGUCUGGCAAAAGACGAAACAGC [GGCAAA] | 2.069 ± 0.0036 | 2.04 ± 0.044
